Measured values: paper PMC3298681 (Molecular Cell, 2011)

Target: the molecule itself

B1: DgcB (CC1850), purified (enzyme, Caulobacter crescentus, UniProt Q9A776 1-353, looked up)
chain: MSDVETTLRGPEAYKIASRALELMERHQVWPTALNFELWTHYVADPNGALARELTRLISLGEPMTELVSEELAATFLPKARLNEQIRDAGDILSKELEAVSKAIQNAQKSNAAFGQELAGASKSLDTHTDVASIKAVVGSIAEATRRVHKENQSLEARLADSTAEVERLREHLEQVRRDATTDGLTNLANRKAFDDELDRACAEAEEGGTTICLAVLDIDHFKGFNDTWGHQTGDQVIRYVASVIGRVAAPPRFAARYGGEEFAMIFPREAASVVATTLEEIRVEVSSRMLKRRSTNEDLGAITVSSGFAERKPGESGHSVMERADAALYASKRGGRNRVTAAESMPGAANAA
stoichiometry N: 2
